# Measurements from patent publication US20160272683A1 (Novo Nordisk, published 2016).
# Numbered stars: 1 amine (or outer) side, 2 acyl side, 3 side chain; on linkers, the order of the positions; unused ones are H or OH. * marks the point of attachment. C20 diacid = O=C(O)CCCCCCCCCCCCCCCCCCC(=O)*; C18 diacid = O=C(O)CCCCCCCCCCCCCCCCC(=O)*; γGlu = O=C(O)[C@H](CCC(=O)[*:2])N[*:1]
# T1: human amylin 3(a) receptor (human calcitonin receptor co-expressed with RAMP-3) on BHK570/CRE-luc cells (human, UniProt P30988 25-474; O60896 24-148)
# T1 sequence (looked up) 1: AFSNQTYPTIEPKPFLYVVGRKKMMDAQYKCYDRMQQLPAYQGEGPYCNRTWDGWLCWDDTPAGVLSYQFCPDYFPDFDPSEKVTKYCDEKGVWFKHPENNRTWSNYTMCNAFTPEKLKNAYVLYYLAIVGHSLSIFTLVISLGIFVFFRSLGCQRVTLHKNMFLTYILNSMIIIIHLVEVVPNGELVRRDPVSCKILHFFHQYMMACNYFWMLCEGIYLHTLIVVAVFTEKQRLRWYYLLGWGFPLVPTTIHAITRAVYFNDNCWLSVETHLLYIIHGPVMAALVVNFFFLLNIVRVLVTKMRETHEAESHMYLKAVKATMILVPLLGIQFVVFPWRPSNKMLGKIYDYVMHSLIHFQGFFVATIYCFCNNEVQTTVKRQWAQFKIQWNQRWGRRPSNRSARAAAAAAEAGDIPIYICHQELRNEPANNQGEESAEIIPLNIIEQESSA
# T1 sequence (looked up) 2: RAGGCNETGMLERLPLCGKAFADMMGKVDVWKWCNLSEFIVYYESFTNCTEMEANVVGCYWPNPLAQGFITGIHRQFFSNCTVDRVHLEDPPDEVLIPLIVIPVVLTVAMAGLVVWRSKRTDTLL
# T2: human calcitonin receptor on BHK570/CRE-luc cells (human, UniProt P30988 25-474)
# T2 sequence (looked up): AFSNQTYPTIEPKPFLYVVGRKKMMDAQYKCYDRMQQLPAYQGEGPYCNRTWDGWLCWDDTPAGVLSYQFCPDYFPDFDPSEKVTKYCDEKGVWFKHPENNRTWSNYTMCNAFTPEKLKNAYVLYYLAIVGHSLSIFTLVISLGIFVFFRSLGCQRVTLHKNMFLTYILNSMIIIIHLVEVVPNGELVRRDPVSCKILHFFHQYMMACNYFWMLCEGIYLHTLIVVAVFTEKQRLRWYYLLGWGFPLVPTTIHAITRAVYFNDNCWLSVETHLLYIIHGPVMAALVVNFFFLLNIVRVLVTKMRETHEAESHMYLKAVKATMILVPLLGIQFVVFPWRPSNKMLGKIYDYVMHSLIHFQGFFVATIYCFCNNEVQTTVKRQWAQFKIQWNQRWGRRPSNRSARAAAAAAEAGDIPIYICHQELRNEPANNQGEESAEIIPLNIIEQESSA
# Legend:
# [1] = target: T1, human amylin 3(a) receptor (human …); experiment: cell-based or functional assay
# [2] = target: T2, human calcitonin receptor on …; experiment: cell-based or functional assay
"hAmylin-R funct. EC50 (pM), tested with HSA [1] [pM]","hCTR funct. EC50 (pM), tested with HSA [2] [pM]",Binder
356,87,"{C18 diacid-γGlu}-ASEVSTAVLGRLSAELHELATLPRTETGSGSP-NH2 [[N-terminal(C18 diacid-gGlu), des1, 5V, 9V, 30S, 31G]mimylin]"
181,113,"{C20 diacid-γGlu}-EAASELSTAALGRLSAELHELATYPRTETGSGSP-NH2 (SMILES CC(C)C[C@H](NC(=O)[C@H](C)NC(=O)[C@H](C)NC(=O)[C@@H](NC(=O)[C@H](CO)NC(=O)[C@H](CC(C)C)NC(=O)[C@H](CCC(=O)O)NC(=O)[C@H](CO)NC(=O)[C@H](C)NC(=O)[C@H](C)NC(=O)[C@H](CCC(=O)O)NC(=O)CC[C@H](NC(=O)CCCCCCCCCCCCCCCCCCC(=O)O)C(=O)O)[C@@H](C)O)C(=O)NCC(=O)N[C@@H](CCCNC(=N)N)C(=O)N[C@@H](CC(C)C)C(=O)N[C@@H](CO)C(=O)N[C@@H](C)C(=O)N[C@@H](CCC(=O)O)C(=O)N[C@@H](CC(C)C)C(=O)N[C@@H](Cc1c[nH]cn1)C(=O)N[C@@H](CCC(=O)O)C(=O)N[C@@H](CC(C)C)C(=O)N[C@@H](C)C(=O)N[C@H](C(=O)N[C@@H](Cc1ccc(O)cc1)C(=O)N1CCC[C@H]1C(=O)N[C@@H](CCCNC(=N)N)C(=O)N[C@H](C(=O)N[C@@H](CCC(=O)O)C(=O)N[C@H](C(=O)NCC(=O)N[C@@H](CO)C(=O)NCC(=O)N[C@@H](CO)C(=O)N1CCC[C@H]1C(N)=O)[C@@H](C)O)[C@@H](C)O)[C@@H](C)O) [[N-terminal(C20 diacid-gGlu), -1E, 1A, 23Y, 30S, 31G]mimylin]"
19,9,"{C18 diacid-γGlu}-ASELTTAVLGRLSAELHELATLPRTETGSGSP-NH2 (SMILES CC(C)C[C@H](NC(=O)[C@H](CCC(=O)O)NC(=O)[C@H](Cc1c[nH]cn1)NC(=O)[C@H](CC(C)C)NC(=O)[C@H](CCC(=O)O)NC(=O)[C@H](C)NC(=O)[C@H](CO)NC(=O)[C@H](CC(C)C)NC(=O)[C@H](CCCNC(=N)N)NC(=O)CNC(=O)[C@H](CC(C)C)NC(=O)[C@@H](NC(=O)[C@H](C)NC(=O)[C@@H](NC(=O)[C@@H](NC(=O)[C@H](CC(C)C)NC(=O)[C@H](CCC(=O)O)NC(=O)[C@H](CO)NC(=O)[C@H](C)NC(=O)CC[C@H](NC(=O)CCCCCCCCCCCCCCCCC(=O)O)C(=O)O)[C@@H](C)O)[C@@H](C)O)C(C)C)C(=O)N[C@@H](C)C(=O)N[C@H](C(=O)N[C@@H](CC(C)C)C(=O)N1CCC[C@H]1C(=O)N[C@@H](CCCNC(=N)N)C(=O)N[C@H](C(=O)N[C@@H](CCC(=O)O)C(=O)N[C@H](C(=O)NCC(=O)N[C@@H](CO)C(=O)NCC(=O)N[C@@H](CO)C(=O)N1CCC[C@H]1C(N)=O)[C@@H](C)O)[C@@H](C)O)[C@@H](C)O) [[N-terminal(C18 diacid-gGlu), des1, 6T, 9V, 30S, 31G]mimylin]"
440,123,"{C20 diacid-γGlu}-ASELSTAALGHLSAELHELATLPHTETGSGSP-NH2 (SMILES CC(C)C[C@H](NC(=O)[C@H](C)NC(=O)[C@H](C)NC(=O)[C@@H](NC(=O)[C@H](CO)NC(=O)[C@H](CC(C)C)NC(=O)[C@H](CCC(=O)O)NC(=O)[C@H](CO)NC(=O)[C@H](C)NC(=O)CC[C@H](NC(=O)CCCCCCCCCCCCCCCCCCC(=O)O)C(=O)O)[C@@H](C)O)C(=O)NCC(=O)N[C@@H](Cc1c[nH]cn1)C(=O)N[C@@H](CC(C)C)C(=O)N[C@@H](CO)C(=O)N[C@@H](C)C(=O)N[C@@H](CCC(=O)O)C(=O)N[C@@H](CC(C)C)C(=O)N[C@@H](Cc1c[nH]cn1)C(=O)N[C@@H](CCC(=O)O)C(=O)N[C@@H](CC(C)C)C(=O)N[C@@H](C)C(=O)N[C@H](C(=O)N[C@@H](CC(C)C)C(=O)N1CCC[C@H]1C(=O)N[C@@H](Cc1c[nH]cn1)C(=O)N[C@H](C(=O)N[C@@H](CCC(=O)O)C(=O)N[C@H](C(=O)NCC(=O)N[C@@H](CO)C(=O)NCC(=O)N[C@@H](CO)C(=O)N1CCC[C@H]1C(N)=O)[C@@H](C)O)[C@@H](C)O)[C@@H](C)O) [[N-terminal(C20 diacid-gGlu), des1, 12H, 25H, 30S, 31G]mimylin]"
